Legend:
[1] = target: OmpA with T7⋅tag epitope inserted into loop 4 (Escherichia coli) (UniProt P0A910); assay: flow cytometry of whole cells, biotinylated mAb then streptavidin-phycoerythrin
[2] = target: OmpA with T7⋅tag epitope inserted into loop 1 (Escherichia coli) (UniProt P0A910); assay: as above

fold fluorescence above background cellular autofluorescence [1]: 2 fold
fold fluorescence above background control cells [2]: 300 fold
Substance: anti-T7⋅tag monoclonal antibody
